# B1: library; numbered along this chain (parent)
# chain: MRKPRAAVGSGHRKQAASQEGRQKHAKNNSQAKPSACDGLARQPEEVVLQASVSSYHLFRDVAEVTAFRGSLLSWYDQEKRDLPWRRRAEDEMDLDRRAYAVWVSEVMLQQTQVATVINYYTGWMQKWPTLQDLASASLEEVNQLWAGLGYYSRGRRLQEGARKVVEELGGHMPRTAETLQQLLPGVGRYTAGAIASIAFGQATGVVDGNVARVLCRVRAIGADPSSTLVSQQLWGLAQQLVDPARPGDFNQAAMELGATVCTPQRPLCSQCPVESLCRARQRVEQEQLLASGSLSGSPDVEECAPNTGQCHLCLPPSEPWDQTLGVVNFPRKASRKPPREESSATCVLEQPGALGAQILLVQRPNSGLLAGLWEFPSVTWEPSEQLQRKALLQELQRWAGPLPATHLRHLGEVVHTFSHIKLTYQVYGLALEGQTPVTTVPPGARWLTQEEFHTAAVSTAMKKVFRVYQGQQPGTCMGSKRSQVSSPCSRKKPRMGQQVLDNFFRSHISTDAHSLNSAAQ
# Variants of: B1
# Assay: 8OG:A repair function score (normalized; synonymous = 0, nonsense = -1) (normalized log-likelihood score); higher = more repair activity (WT-like)
# Conditions: with 8OG:A DNA repair reporter (GFP) in HEK-293 MUTYH KO cells
# Protocol: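 Saturation mutagenesis (NNN codon scan) of the MUTYH cDNA (521-aa nuclear isoform NM_001048174.1 / NP_001041639), stably expressed under doxycycline induction in HEK-293 MUTYH knockout cells. Cells were co-transfected with an 8OG:A-bearing GFP repair reporter plus mCherry and sorted 72 h later into GFP+ and GFP− bins, three replicates per tile. The Rosace log2 enrichment (GFP+ vs GFP−) was converted per tile to a normalized function score with synonymous variants centered at 0 and nonsense variants (codons 1-471) at -1; low-abundance variants were removed.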
row,Variant,8OG:A repair function score
1,I195C,-0.59
2,I195N,-1.12
3,I195M,-0.23
4,Q110C,-0.75
5,Q110L,-0.353
6,V284N,-0.0944
7,K463S,-0.241
8,K463Q,-0.183
9,L355T,0.059
10,G475E,-0.00575
11,W75Y,-0.448
12,A51H,0.0322
13,A51Y,0.00468
14,E287F,-0.0154
15,A137R,-0.54
16,E285Y,-0.0542
17,E285T,-0.0287
18,E285V,0.00347
19,T176H,-0.0301
20,F68A,-0.234
21,T455W,-0.419
22,T455P,-0.714
23,R336Q,-0.218
24,R336E,-0.151

row,Variant,8OG:A repair function score
1,V218I,-0.196
2,F418V,-0.269
3,Y425Q,-0.626
4,Y425G,-0.907
5,Y425F,-0.11
6,E45S,-0.0822
7,E45Q,-0.0405
8,V362C,-0.232
9,G368E,-0.692
10,I421A,-0.443
11,G429M,-0.288
12,G205C,-0.378
13,G444K,-0.0942
14,A345V,0.0157
15,A345Y,-0.126
16,V379S,-0.0246
17,R364C,-0.262
18,R364D,-0.614
19,V102A,-0.644
20,S515Y,0.025
21,M108E,-0.887
22,L315Q,-0.193
23,S292V,-0.0158
24,W124E,-1.01

row,Variant,8OG:A repair function score
1,A391G,-0.201
2,V328M,-0.0227
3,V328Q,0.0461
4,E452G,-0.228
5,E452I,-0.47
6,R340P,-0.328
7,V261Y,-0.342
8,P320A,-0.0474
9,P317I,-0.0482
10,A400P,-0.723
11,N517Y,-0.0106
12,V142L,-0.245
13,V142T,-0.532
14,T406H,0.516
15,S367M,0.226
16,S367N,0.179
17,P34C,0.0156
18,L83F,-0.285
19,L432G,-0.302
20,H454N,0.24
21,H454M,-0.158
22,T380N,-0.171
23,T380A,0.0285
24,F453R,-1.09

row,Variant,8OG:A repair function score
1,N329E,-0.365
2,N329W,-0.525
3,M496H,0.0281
4,T263I,-0.0749
5,G123D,-0.257
6,M173W,-0.276
7,M173H,-0.672
8,W447L,-0.567
9,L295W,-0.0272
10,L295I,0.00398
11,T439Y,-0.104
12,E350Q,-0.13
13,E350D,-0.304
14,E350P,-1.12
15,A513V,-0.0254
16,T66S,-0.0428
17,V415P,-0.0885
18,F376G,-1.2
19,F376D,-0.964
20,R389C,-0.13
21,H508W,0.018
22,C477S,-0.00994
23,C477H,0.0203
24,Q144L,-0.000148

row,Variant,8OG:A repair function score
1,V165A,-0.341
2,R446L,-0.202
3,T346S,-0.168
4,P338M,0.0756
5,C304S,-0.289
6,K422A,-0.0566
7,K422M,-0.42
8,R279N,-0.123
9,S419V,-0.259
10,S419L,-0.749
11,S138C,-0.385
12,L501R,0.00197
13,G326P,-0.475
14,G326A,-0.264
15,K164R,-0.0158
16,L131D,-1.1
17,V114G,-0.449
18,K390W,-0.444
19,E319V,-0.0112
20,E319Y,-0.0495
21,E46C,0.0656
22,E46H,-0.0875
23,G309K,-0.0254
24,Q426M,-0.183

row,Variant,8OG:A repair function score
1,R332N,-0.315
2,R332C,-0.154
3,T179D,0.248
4,T179P,-0.236
5,R189W,-0.343
6,R189K,-0.0681
7,R189A,-0.136
8,V65T,-0.00404
9,P402C,-0.0435
10,G236E,0.29
11,L403K,-0.295
12,L403A,-0.335
13,K464D,-0.393
14,L134M,-0.216
15,L134R,-1.01
16,W128E,-0.929
17,K3I,-0.161
18,K3L,0.0859
19,L184C,-0.317
20,L184K,-0.925
21,L184M,-0.281
22,L184H,-1.05
23,C272I,-1.3
24,T424W,-0.204

row,Variant,8OG:A repair function score
1,H416D,-0.403
2,S71V,0.00531
3,S71D,-0.0972
4,N503P,-0.000934
5,Y151V,-0.583
6,R81Y,-0.359
7,V500Q,0.00719
8,Q472W,0.027
9,R69V,-0.212
10,G39D,0.118
11,G39T,0.103
12,Q386F,-0.144
13,L215I,-0.331
14,L215F,-0.325
15,L277T,-0.115
16,P84W,-1.29
17,V468R,-0.101
18,R98E,-0.275
19,Q159K,0.0628
20,Q159S,-0.121
21,T324S,0.0429
22,R467G,-0.0609
23,A520H,-0.0164

# From the supplement of paper PMC11908140
